This test addresses T1, KBTBD4 (construct for structure determination) (human), Q9NVX7.
T1 chain: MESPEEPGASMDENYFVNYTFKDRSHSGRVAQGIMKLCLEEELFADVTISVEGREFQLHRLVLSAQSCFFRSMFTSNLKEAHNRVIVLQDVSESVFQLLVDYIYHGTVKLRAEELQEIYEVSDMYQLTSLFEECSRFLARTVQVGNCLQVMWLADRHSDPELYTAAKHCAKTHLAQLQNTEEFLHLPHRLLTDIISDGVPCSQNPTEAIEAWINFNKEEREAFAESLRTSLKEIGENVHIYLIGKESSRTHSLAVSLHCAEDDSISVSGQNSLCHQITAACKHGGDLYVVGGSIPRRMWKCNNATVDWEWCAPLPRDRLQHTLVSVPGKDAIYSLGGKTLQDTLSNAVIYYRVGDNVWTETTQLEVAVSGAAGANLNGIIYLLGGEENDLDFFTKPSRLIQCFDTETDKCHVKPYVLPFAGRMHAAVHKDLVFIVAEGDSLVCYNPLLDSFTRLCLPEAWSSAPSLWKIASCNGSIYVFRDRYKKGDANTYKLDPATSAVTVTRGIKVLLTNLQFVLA
Briefly: cryo-EM structure. Conditions: remark: other sources report otherwise.

Here are results for one molecule from publication doi:10.1101/2024.05.14.593897.

B1: KBTBD4 (construct for structure determination), Q9NVX7-1 1-518 (natural protein)
chain: MESPEEPGASMDENYFVNYTFKDRSHSGRVAQGIMKLCLEEELFADVTISVEGREFQLHRLVLSAQSCFFRSMFTSNLKEAHNRVIVLQDVSESVFQLLVDYIYHGTVKLRAEELQEIYEVSDMYQLTSLFEECSRFLARTVQVGNCLQVMWLADRHSDPELYTAAKHCAKTHLAQLQNTEEFLHLPHRLLTDIISDGVPCSQNPTEAIEAWINFNKEEREAFAESLRTSLKEIGENVHIYLIGKESSRTHSLAVSLHCAEDDSISVSGQNSLCHQITAACKHGGDLYVVGGSIPRRMWKCNNATVDWEWCAPLPRDRLQHTLVSVPGKDAIYSLGGKTLQDTLSNAVIYYRVGDNVWTETTQLEVAVSGAAGANLNGIIYLLGGEENDLDFFTKPSRLIQCFDTETDKCHVKPYVLPFAGRMHAAVHKDLVFIVAEGDSLVCYNPLLDSFTRLCLPEAWSSAPSLWKIASCNGSIYVFRDRYKKGDANTYKLDPATSAVTVTRGIKVLLTNLQFVLA
As to B1, the stoichiometry N worked out at 2.
